For orientation: Kd means the concentration at which binding is half-saturated. A low value points to tighter binding.

Data set [1] concerns the molecule itself. Nature of the data set: MST.
Data set [2] deals with the molecule itself. Kind of data set: MST. This is another data set of the same source.
Data set [3] deals with the molecule itself. Nature of the data set: MST. The source holds these as a separate data set.
The data set “ITC” concerns the molecule itself. Nature of the data set: ITC. In general terms: In ITC the heat of successive injections is recorded.
Data set [4] concerns the molecule itself. Kind of data set: MST. This is another data set of the same source.

B1: wild-type HdeA (natural protein, Escherichia coli, UniProt P0AES9 22-110, looked up)
chain: ADAQKAADNKKPVNSWTCEDFLAVDESFQPTAVGFAEALNNKDKPEDAVLDVQGIATVTPAIVQACTQDKQANFKDKVKGEWDKIKKDM
As to B1, the Kd in the data set “MST [1]” is 1200 ± 200 nM; in “MST [2]” it was 750 ± 310 nM; in “MST [3]”, 640 ± 170 nM; in the data set “ITC”, 64000 ± 8000 nM.

B2: HdeA E37Q (natural protein, Escherichia coli, UniProt P0AES9 22-110, looked up)
chain: ADAQKAADNKKPVNSWTCEDFLAVDESFQPTAVGFAQALNNKDKPEDAVLDVQGIATVTPAIVQACTQDKQANFKDKVKGEWDKIKKDM
Take B2: the values for the Kd in “MST [3]” and in the data set “MST [4]” were 550 ± 100 nM and 490 ± 100 nM, respectively.

For the origin of these results see paper PMC5738273 (Journal of molecular biology, 2017).
